1 substance from IntAct's records for PubMed 19070620 can be followed below.

The target of the experiment is T1, rogf8_arath ROPGEF8 (UniProt Q9LV40).
T1 sequence: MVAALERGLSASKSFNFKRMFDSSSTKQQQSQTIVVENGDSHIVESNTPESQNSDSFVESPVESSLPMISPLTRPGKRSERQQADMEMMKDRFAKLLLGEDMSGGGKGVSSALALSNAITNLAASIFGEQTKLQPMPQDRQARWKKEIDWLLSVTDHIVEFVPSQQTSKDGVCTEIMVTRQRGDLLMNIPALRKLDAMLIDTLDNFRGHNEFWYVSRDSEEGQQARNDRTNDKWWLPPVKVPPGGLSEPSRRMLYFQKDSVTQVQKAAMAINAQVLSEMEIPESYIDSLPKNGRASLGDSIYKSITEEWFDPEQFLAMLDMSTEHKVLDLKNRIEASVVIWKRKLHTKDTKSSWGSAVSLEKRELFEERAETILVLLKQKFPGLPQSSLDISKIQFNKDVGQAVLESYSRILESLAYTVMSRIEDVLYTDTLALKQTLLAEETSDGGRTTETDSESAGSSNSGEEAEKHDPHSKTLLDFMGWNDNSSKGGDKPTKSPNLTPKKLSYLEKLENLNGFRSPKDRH

For the substance “Ras-related C3 botulinum toxin substrate 1 (Homo sapiens) (from UniProt P63000) P73C”, the “effect of a mutation on the interaction” value is on record as “increasing interaction”.
